Entries after “also recorded” stand apart in the source; their conditions may differ.

Two molecules from article PMC13342644, “Structural basis for transport and inhibition of nucleotide sugar transport in pathogenic fungi” (Nature Communications, 2026) can be followed below.

In one assay the test system is C. auris Vrg4. Nature of the assay: Liposome 3H-GMP transport assay in the presence of nanobodies (specificity control). In kind it is biochemical. The settings on record: Vrg4 from Candida auris. The method, then:
(§1) CaVrg4 was reconstituted into liposomes using the dilution method into preformed lipid vesicles. Chloroform was removed from the lipids using a rotary evaporator to obtain a thin film. The lipids were washed twice in pentane and then resuspended at 10–20 mg ml^−1 in lipid buffer (20 mM HEPES, pH 7.5, 100 mM KCl). These lipid vesicles were frozen and thawed twice in liquid nitrogen, then stored at −80 °C until use. For reconstitution, the lipids were thawed and then extruded first through a 0.8-μm filter and then through a 0.4-μm filter. […] After this time, the protein–lipid mix was diluted rapidly into 65 mL of assay buffer (20 mM HEPES, pH 7.5, 50 mM KCl, 2 mM MgSO4) and the proteoliposomes were collected through centrifugation at >200,000 x g for 2 h. To remove trace detergent, the proteoliposomes were dialysed overnight against a large volume (3 L) of assay buffer. After dialysis, the proteoliposomes were collected and resuspended in assay buffer to a final protein concentration of 0.5 μg μl^−1, and then subjected to two rounds of freeze–thawing in liquid nitrogen before storage at −80 °C. The amount of protein reconstituted into the lipids was quantified by SDS–PAGE and densitometry. […] The final buffer was PBS. For all the assays, the lipid mix consisted of POPE:POPG:Ecoli Polar lipid Extract:EggPC in a 27:7:9:1 ratio.
(§2) All assays were performed at 30 °C.

Assay [1] has as its system yeast strain NDY5 overexpressing C. albicans Vrg4. The experiment in a line: Hygromycin B-based in vivo viability (growth) assay. In kind it is cell-based, Saccharomyces cerevisiae. The settings on record: NDY5 + C. albicans Vrg4, in the presence of hygromycin B. On the procedure: The yeast was grown in minimal media to select for the plasmids, and the expression of the nanobody was induced with galactose. After overnight galactose induction, the yeast culture was diluted, and growth was monitored over 30 h.
An overnight culture was grown in minus -Leu-Ura medium containing 2% glucose and then diluted 1:10 into medium containing 2% lactate. After 9 h of growth, 2% galactose was added, and the cultures were left overnight. […] The cultures were grown at 30 °C with shaking, and growth was monitored over the next 30 h by measuring the OD.

The target in assay [2] is T1, C. albicans Vrg4 (CaVrg4) (Candida albicans, UniProt Q5A477).
T1 sequence (Q5A477 34-371 limits assumed): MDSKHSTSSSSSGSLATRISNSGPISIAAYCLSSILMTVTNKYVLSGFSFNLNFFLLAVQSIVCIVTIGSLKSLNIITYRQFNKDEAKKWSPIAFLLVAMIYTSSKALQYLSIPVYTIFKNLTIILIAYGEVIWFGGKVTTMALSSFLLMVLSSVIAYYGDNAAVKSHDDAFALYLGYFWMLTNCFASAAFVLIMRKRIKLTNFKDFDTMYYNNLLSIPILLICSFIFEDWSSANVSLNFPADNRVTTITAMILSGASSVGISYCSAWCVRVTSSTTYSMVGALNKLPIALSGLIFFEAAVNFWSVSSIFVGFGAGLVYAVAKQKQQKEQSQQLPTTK
The experiment in a line: Liposome 3H-GMP transport assay in the presence of nanobodies. In kind it is biochemical. The method, then:
as §1, §2

A further assay concerns S. cerevisiae Vrg4. Nature of the assay: Liposome 3H-GMP transport assay in the presence of nanobodies (specificity control). The conditions noted are these: Vrg4 from S. cerevisiae. In kind it is biochemical, Saccharomyces cerevisiae.

B1: NB4: inhibitory nanobody specific for C. albicans Vrg4, stabilises the cytoplasmic-facing state (antibody, V domains shown)
VH: QVQLVESGGGLVQAGGSLRLSCAASGRTFRSYTLGWFRQAPGKEREFVAAIKWSTDTTYYADSVKGRFTISGDNAKNTVYLQMNSLKPEDTAVYFCAARSLSTVIAGPEIPWPYNSWGQGTQVTVSS
On to B1, for which the “Detectable inhibition, in words” value in the assay on C. auris Vrg4 and in the assay on S. cerevisiae Vrg4 was “neither NB3 nor NB4 showed any detectable inhibition” each time. Moreover, the “Growth / sensitivity to hygromycin B, in words” value in assay [1] was “sensitivity of this strain to HyB manifests; also recorded: slow growth phenotype”. For the same molecule, the “Effect on transport function (uptake of 3H GMP into liposomes), in words” value in assay [2] is reported as “full inhibition”.

B2: NB3: inhibitory nanobody specific for C. albicans Vrg4, stabilises the Golgi-facing state (antibody, V domains shown)
VH: QVQLVESGGGLVQPGGSLRLSCAASGSISEINVMGWYRQAPGKQRELVARITTGGSTNYADSVKGRFTISRDNAKNTVYLQMNSLKPEDTAVYMCNAHRRVVMEWGPLGYDYWGQGTQVTVSS
Take B2: the “Detectable inhibition, in words” value in the assay with C. auris Vrg4 and in the assay on S. cerevisiae Vrg4 was “neither NB3 nor NB4 showed any detectable inhibition” throughout. For the same molecule, the “Growth / sensitivity to hygromycin B, in words” value in assay [1] was “sensitivity of this strain to HyB manifests; also recorded: slow growth phenotype”. The “Effect on transport function (uptake of 3H GMP into liposomes), in words” value in assay [2] is “full inhibition”.
